Laboratory results as given in article PMC9813914, “Structural Basis for a Cork-Up Mechanism of the Intra-Molecular Mesaconyl-CoA Transferase” (Biochemistry, 2022).

What was measured:
[1] = substrate: C/C(=C\C(=O)O)C(=O)SCCNC(=O)CCNC(=O)[C@H](O)C(C)(C)COP(=O)(O)OP(=O)(O)OC[C@H]1O[C@@H](n2cnc3c(N)ncnc32)[C@H](O)[C@@H]1OP(=O)(O)O; assay: purified protein; type: biochemical, Chloroflexus aurantiacus; settings: 200 mM HEPES/KOH pH 8.0, 55 °C, 22 nM Mct, intra-molecular CoA transfer C1 to C4
[2] = substrate: C/C(=C\C(=O)SCCNC(=O)CCNC(=O)[C@H](O)C(C)(C)COP(=O)(O)OP(=O)(O)OC[C@H]1O[C@@H](n2cnc3c(N)ncnc32)[C@H](O)[C@@H]1OP(=O)(O)O)C(=O)O; assay: purified protein; type: biochemical, Chloroflexus aurantiacus; settings: 200 mM HEPES/KOH pH 8.0, 55 °C, 22 nM Mct, intra-molecular CoA transfer C4 to C1

B1: Mct (mesaconyl-CoA transferase; mesaconyl-C1:C4-CoA CoA transferase) (Chloroflexus aurantiacus J-10-fl) (protein)
chain: MKGILHGLRVVEGSAFVAAPLGGMTLAQLGADVIRFDPIGGGLDYKRWPVTLDGKHSLFWAGLNKGKRSIAIDIRHPRGQELLTQLICAPGEHAGLFITNFPARGWLSYDELKRHRADLIMVNLVGRRDGGSEVDYTVNPQLGLPFMTGPVTTPDVVNHVLPAWDIVTGQMIALGLLAAERHRRLTGEGQLVKIALKDVGLAMIGHLGMIAEVMINDTDRPRQGNYLYGAFGRDFETLDGKRVMVVGLTDLQWKALGKATGLTDAFNALGARLGLNMDEEGDRFRARHEIAALLEPWFHARTLAEVRRIFEQHRVTWAPYRTVREAIAQDPDCSTDNPMFAMVEQPGIGSYLMPGSPLDFTAVPRLPVQPAPRLGEHTDEILLEVLGLSEAEVGRLHDEGIVAGPDRAA
notes: intertwined homodimer
[1]
  Km: 160 µM
  kcat: 370 s⁻¹
[2]
  Km: 200 µM
  kcat: 320 s⁻¹
